Literature values as cited in article PMC3090270 (Structure (London, England : 1993), 2010).

B1: D-AKAP1: dual-specific AKAP (protein, UniProt Q92667 30-903, looked up)
A-kinase anchor protein 1, …: KGHVSSHDEQQVEAGAVQLRADPAIKEPLPVEDVCPKVVSTPPSVTEPPEKELSTVSKLPAEPPALLQTHPPCRRSESSGILPNTTDMRLRPGTRRDDSTKLELALTGGEAKSIPLECPLSSPKGVLFSSKSAEVCKQDSPFSRVPRKVQPGYPVVPAEKRSSGERARETGGAEGTGDAVLGEKVLEEALLSREHVLELENSKGPSLASLEGEEDKGKSSSSQVVGPVQEEEYVAEKLPSRFIESAHTELAKDDAAPAPPVADAKAQDRGVEGELGNEESLDRNEEGLDRNEEGLDRNEESLDRNEEGLDRNEEIKRAAFQIISQVISEATEQVLATTVGKVAGRVCQASQLQGQKEESCVPVHQKTVLGPDTAEPATAEAAVAPPDAGLPLPGLPAEGSPPPKTYVSCLKSLLSSPTKDSKPNISAHHISLASCLALTTPSEELPDRAGILVEDATCVTCMSDSSQSVPLVASPGHCSDSFSTSGLEDSCTETSSSPRDKAITPPLPESTVPFSNGVLKGELSDLGAEDGWTMDAEADHSGGSDRNSMDSVDSCCSLKKTESFQNAQAGSNPKKVDLIIWEIEVPKHLVGRLIGKQGRYVSFLKQTSGAKIYISTLPYTQSVQICHIEGSQHHVDKALNLIGKKFKELNLTNIYAPPLPSLALPSLPMTSWLMLPDGITVEVIVVNQVNAGHLFVQQHTHPTFHALRSLDQQMYLCYSQPGIPTLPTPVEITVICAAPGADGAWWRAQVVASYEETNEVEIRYVDYGGYKRVKVDVLRQIRSDFVTLPFQGAEVLLDSVMPLSDDDQFSPEADAAMSEMTGNTALLAQVTSYSPTGLPLIQLWSVVGDEVVLINRSLVERGLAQWVDSYYTSL
B2: Merlin: AKAP shown to bind RI subunits (protein, UniProt P35240 1-595, looked up)
Merlin: MAGAIASRMSFSSLKRKQPKTFTVRIVTMDAEMEFNCEMKWKGKDLFDLVCRTLGLRETWFFGLQYTIKDTVAWLKMDKKVLDHDVSKEEPVTFHFLAKFYPENAEEELVQEITQHLFFLQVKKQILDEKIYCPPEASVLLASYAVQAKYGDYDPSVHKRGFLAQEELLPKRVINLYQMTPEMWEERITAWYAEHRGRARDEAEMEYLKIAQDLEMYGVNYFAIRNKKGTELLLGVDALGLHIYDPENRLTPKISFPWNEIRNISYSDKEFTIKPLDKKIDVFKFNSSKLRVNKLILQLCIGNHDLFMRRRKADSLEVQQMKAQAREEKARKQMERQRLAREKQMREEAERTRDELERRLLQMKEEATMANEALMRSEETADLLAEKAQITEEEAKLLAQKAAEAEQEMQRIKATAIRTEEEKRLMEQKVLEAEVLALKMAEESERRAKEADQLKQDLQEAREAERRAKQKLLEIATKPTYPPMNPIPAPLPPDIPSFNLIGDSLSFDFKDTDMKRLSMEIEKEKVEYMEKSKHLQEQLNELKTEIEALKLKERETALDILHNENSDRGGSSKHNTIKKLTLQSAKSRVAFFEEL
B3: Pap7: AKAP shown to bind RI subunits (protein, UniProt Q9H3P7 1-528, looked up)
Golgi resident protein GCP60: MAAVLNAERLEVSVDGLTLSPDPEERPGAEGAPLLPPPLPPPSPPGSGRGPGASGEQPEPGEAAAGGAAEEARRLEQRWGFGLEELYGLALRFFKEKDGKAFHPTYEEKLKLVALHKQVLMGPYNPDTCPEVGFFDVLGNDRRREWAALGNMSKEDAMVEFVKLLNRCCHLFSTYVASHKIEKEEQEKKRKEEEERRRREEEERERLQKEEEKRRREEEERLRREEEERRRIEEERLRLEQQKQQIMAALNSQTAVQFQQYAAQQYPGNYEQQQILIRQLQEQHYQQYMQQLYQVQLAQQQAALQKQQEVVVAGSSLPTSSKVNATVPSNMMSVNGQAKTHTDSSEKELEPEAAEEALENGPKESLPVIAAPSMWTRPQIKDFKEKIQQDADSVITVGRGEVVTVRVPTHEEGSYLFWEFATDNYDIGFGVYFEWTDSPNTAVSVHVSESSDDDEEEEENIGCEEKAKKNANKPLLDEIVPVYRRDCHEEVYAGSHQYPGRGVYLLKFDNSYSLWRSKSVYYRVYYTR

System: RI subunits
Conditions: ref Huang et al., 1997b (D-AKAP1), 1997a (D-AKAP2), Reinton et al., 2000 (AKAP220), Gronholm et al., 2003 (Merlin), Li et al., 2001 (Pap7)

Molecule	binding to RI subunits (dual-specific)
B1	bind RI subunits
B2	bind RI subunits
B3	bind RI subunits
